Test results published in patent publication US20260184748A1 (University of Pennsylvania, published 2026).
Where no end group is shown, it is not given here.

What was measured:
Experiment in all cases: cell-based or functional assay
[1] = biological target: HRH2 (UniProt P25021 1-359)
[2] = biological target: HTR2A (UniProt P28223 1-471)
[3] = biological target: MCHR2 (UniProt Q969V1 1-340)
[4] = biological target: NMBR (UniProt P28336 1-390)
[5] = biological target: AVPR2 (UniProt P30518 1-371)
[6] = biological target: SSTR1 (UniProt P30872 1-391)
[7] = biological target: T1, BDKRB1 (UniProt P46663 1-353)
T1 sequence (looked up): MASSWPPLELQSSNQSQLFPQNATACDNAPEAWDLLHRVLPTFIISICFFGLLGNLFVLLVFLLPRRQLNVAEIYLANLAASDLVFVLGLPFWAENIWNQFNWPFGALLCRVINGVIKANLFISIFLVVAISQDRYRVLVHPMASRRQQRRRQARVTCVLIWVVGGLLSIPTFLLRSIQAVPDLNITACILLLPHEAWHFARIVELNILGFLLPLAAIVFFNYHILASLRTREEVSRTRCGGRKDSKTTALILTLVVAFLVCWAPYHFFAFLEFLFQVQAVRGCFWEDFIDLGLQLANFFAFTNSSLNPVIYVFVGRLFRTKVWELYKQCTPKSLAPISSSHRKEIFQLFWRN

[8] = biological target: T2, CALCR (UniProt P30988 25-474, limits assumed)
T2 sequence (looked up): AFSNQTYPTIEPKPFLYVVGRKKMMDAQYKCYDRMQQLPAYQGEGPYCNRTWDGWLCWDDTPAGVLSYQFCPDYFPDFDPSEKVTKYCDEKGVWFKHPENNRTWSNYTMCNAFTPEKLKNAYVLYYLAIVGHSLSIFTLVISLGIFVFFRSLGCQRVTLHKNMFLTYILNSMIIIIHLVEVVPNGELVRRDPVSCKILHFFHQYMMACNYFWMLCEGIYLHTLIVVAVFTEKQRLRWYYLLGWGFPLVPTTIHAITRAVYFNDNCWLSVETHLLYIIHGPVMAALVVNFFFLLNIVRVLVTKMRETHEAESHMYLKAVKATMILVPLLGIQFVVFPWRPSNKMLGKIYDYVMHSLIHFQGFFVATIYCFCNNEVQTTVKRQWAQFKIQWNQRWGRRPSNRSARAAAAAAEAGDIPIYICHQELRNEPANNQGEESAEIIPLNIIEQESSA

[9] = biological target: T3, CCR9 (UniProt P51686 1-369, limits assumed)
T3 sequence (looked up): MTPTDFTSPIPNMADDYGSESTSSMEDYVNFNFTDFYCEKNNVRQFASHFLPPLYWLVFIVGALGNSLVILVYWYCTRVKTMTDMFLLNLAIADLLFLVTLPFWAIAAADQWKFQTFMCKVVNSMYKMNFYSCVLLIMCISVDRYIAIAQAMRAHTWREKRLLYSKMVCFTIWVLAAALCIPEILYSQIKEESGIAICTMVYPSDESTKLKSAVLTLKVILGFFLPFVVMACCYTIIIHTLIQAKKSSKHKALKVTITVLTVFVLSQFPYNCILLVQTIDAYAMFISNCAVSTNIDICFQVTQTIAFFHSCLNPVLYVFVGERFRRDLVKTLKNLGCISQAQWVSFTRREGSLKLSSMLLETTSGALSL

[10] = biological target: T4, CMKLR1 (UniProt Q99788 1-373, limits assumed)
T4 sequence (looked up): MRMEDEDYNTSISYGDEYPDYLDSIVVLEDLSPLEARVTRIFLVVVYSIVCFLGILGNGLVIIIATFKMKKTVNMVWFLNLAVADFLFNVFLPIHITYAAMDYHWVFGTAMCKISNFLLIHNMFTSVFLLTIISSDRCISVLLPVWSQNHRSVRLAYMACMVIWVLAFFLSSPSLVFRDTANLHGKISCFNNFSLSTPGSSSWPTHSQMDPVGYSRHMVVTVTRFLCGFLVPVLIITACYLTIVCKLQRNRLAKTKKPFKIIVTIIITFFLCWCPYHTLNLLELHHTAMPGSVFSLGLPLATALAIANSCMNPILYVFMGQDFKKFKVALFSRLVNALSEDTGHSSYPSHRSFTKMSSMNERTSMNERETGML

[11] = biological target: T5, CXCR2 (UniProt P25025 1-360)
T5 sequence (looked up): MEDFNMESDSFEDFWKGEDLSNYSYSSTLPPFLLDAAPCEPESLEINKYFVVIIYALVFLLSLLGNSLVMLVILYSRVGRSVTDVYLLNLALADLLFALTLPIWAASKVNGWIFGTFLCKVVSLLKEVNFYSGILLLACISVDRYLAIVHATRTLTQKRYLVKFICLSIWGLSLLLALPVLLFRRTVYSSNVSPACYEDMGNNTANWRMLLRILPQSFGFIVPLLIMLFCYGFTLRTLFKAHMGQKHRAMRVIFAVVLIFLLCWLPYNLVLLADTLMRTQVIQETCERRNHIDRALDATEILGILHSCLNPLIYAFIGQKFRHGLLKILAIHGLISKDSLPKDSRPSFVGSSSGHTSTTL

[12] = biological target: CXCR6 (UniProt O00574 1-342)
[13] = biological target: EDG1 (UniProt P21453 1-382)
[14] = biological target: EDG5 (UniProt O95136 1-353)
[15] = biological target: F2RL1 (UniProt P55085 26-397, limits assumed)

Chain of HTR2A (P28223 whole entry): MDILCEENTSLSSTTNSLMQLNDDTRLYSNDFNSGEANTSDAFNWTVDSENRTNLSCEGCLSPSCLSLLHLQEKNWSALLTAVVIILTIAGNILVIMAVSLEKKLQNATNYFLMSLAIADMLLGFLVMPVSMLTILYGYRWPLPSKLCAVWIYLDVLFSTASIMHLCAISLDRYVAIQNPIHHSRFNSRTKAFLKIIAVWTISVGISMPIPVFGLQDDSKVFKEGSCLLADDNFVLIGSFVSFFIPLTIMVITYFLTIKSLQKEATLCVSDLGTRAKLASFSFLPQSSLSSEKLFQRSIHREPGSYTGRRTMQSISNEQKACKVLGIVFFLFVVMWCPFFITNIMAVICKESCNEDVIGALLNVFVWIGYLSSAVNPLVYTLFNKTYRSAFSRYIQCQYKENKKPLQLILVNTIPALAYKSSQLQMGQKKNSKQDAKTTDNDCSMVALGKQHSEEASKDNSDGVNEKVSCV
Chain of EDG1 (P21453 whole entry): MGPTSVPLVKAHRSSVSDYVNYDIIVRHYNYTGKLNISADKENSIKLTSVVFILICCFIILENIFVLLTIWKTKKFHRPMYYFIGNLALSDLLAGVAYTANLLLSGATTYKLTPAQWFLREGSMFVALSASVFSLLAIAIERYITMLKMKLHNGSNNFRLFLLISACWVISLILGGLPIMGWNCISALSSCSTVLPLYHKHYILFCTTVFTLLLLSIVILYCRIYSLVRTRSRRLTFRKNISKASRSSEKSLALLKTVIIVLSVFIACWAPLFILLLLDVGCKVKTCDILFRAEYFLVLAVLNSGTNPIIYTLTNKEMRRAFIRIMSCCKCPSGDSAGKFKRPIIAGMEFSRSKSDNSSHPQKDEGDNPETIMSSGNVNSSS
Chain of EDG5 (O95136 whole entry): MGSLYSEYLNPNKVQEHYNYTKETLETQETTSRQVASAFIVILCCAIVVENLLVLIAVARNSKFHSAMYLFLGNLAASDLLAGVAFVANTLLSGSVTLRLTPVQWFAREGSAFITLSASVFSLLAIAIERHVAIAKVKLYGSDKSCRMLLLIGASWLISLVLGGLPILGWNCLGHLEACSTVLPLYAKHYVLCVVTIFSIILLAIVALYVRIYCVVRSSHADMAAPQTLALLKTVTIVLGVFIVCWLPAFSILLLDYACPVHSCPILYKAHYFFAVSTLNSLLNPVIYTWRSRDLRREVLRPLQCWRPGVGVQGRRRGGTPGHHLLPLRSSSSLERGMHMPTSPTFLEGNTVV
Chain of HRH2 (P25021 whole entry): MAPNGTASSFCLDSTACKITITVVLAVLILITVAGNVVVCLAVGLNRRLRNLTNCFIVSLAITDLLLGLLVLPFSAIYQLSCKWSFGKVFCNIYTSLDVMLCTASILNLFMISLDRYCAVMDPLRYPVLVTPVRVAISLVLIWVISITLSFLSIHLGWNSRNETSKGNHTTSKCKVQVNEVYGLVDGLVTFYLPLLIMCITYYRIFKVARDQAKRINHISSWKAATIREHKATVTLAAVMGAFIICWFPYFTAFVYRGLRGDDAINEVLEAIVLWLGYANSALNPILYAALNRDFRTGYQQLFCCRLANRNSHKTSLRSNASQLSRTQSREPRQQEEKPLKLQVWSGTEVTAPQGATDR
Chain of CXCR6 (O00574 whole entry): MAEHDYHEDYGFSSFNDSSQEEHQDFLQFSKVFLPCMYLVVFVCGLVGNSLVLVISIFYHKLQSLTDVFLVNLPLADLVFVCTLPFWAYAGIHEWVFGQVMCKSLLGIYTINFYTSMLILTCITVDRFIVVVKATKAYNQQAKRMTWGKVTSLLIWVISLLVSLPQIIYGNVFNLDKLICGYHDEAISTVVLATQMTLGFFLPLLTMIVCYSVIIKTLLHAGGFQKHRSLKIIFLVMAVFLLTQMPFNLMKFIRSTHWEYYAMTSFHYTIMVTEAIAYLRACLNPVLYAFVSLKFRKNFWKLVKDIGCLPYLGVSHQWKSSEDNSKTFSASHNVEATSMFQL
Chain of SSTR1 (P30872 whole entry): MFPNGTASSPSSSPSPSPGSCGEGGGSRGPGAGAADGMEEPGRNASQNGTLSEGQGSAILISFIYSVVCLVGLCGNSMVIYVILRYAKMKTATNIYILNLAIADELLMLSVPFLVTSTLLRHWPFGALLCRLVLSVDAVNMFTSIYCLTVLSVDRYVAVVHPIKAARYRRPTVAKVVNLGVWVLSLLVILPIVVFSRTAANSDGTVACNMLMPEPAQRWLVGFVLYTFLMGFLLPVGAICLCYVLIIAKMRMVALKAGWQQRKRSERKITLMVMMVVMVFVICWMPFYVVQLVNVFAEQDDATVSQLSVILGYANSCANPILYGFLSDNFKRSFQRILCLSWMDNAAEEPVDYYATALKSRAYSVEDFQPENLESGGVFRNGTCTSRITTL
Chain of NMBR (P28336 whole entry): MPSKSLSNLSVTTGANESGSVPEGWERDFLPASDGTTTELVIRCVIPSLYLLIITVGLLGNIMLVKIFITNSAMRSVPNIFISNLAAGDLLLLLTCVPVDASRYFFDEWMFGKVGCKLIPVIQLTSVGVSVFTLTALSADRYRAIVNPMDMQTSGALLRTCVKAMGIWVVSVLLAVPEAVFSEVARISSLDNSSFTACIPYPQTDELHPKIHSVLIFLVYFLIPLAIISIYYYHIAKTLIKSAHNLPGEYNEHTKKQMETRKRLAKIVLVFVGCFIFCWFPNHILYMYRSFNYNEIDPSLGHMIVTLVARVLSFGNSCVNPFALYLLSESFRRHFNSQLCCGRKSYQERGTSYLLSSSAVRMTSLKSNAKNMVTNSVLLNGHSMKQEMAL
Chain of MCHR2 (Q969V1 whole entry): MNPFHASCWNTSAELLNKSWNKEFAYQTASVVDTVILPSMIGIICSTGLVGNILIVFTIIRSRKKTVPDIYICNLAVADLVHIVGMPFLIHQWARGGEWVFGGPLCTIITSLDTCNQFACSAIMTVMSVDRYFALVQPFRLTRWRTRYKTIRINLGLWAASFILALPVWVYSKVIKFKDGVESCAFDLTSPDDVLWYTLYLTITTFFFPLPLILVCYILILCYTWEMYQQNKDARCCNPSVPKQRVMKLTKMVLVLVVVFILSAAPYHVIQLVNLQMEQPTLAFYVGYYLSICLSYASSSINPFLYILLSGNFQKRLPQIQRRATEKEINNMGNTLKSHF

QATVGDVNTDRPGLLDLK (also: synthesised on Rink amide resin, C-terminal amide not given here outright) [octadecaneuropeptide (ODN)]
% Activity, arrestin, antagonist mode, 2.5 uM [1]: -13.3%
% Activity, arrestin, antagonist mode, 2.5 uM [2]: -9.7%
% Activity, arrestin, antagonist mode, 2.5 uM [3]: -10.5%
% Activity, arrestin, antagonist mode, 2.5 uM [4]: -7.7%
% Activity, arrestin, antagonist mode, 2.5 uM [5]: -11.2%
% Activity, arrestin, antagonist mode, 2.5 uM [6]: -1.6%
% Activity, arrestin, antagonist mode, 2.5 uM [7]: -5.7%
% Activity, arrestin, antagonist mode, 2.5 uM [8]: -22.3%
% Activity, arrestin, antagonist mode, 2.5 uM [9]: -10.1%
% Activity, arrestin, antagonist mode, 2.5 uM [10]: -18.3%
% Activity, arrestin, antagonist mode, 2.5 uM [11]: -9.8%
% Activity, arrestin, antagonist mode, 2.5 uM [12]: -1.3%
% Activity, arrestin, antagonist mode, 2.5 uM [13]: -25.9%
% Activity, arrestin, antagonist mode, 2.5 uM [14]: -11.2%
% Activity, arrestin, antagonist mode, 2.5 uM [15]: -9.2%
